Test results published in US20240025993A1, “CD19 BINDING MOLECULES AND USES THEREOF” (NOVARTIS AG, priority 2020, published 2024).

How the values were obtained:
[1] = tested on: Jurkat NFAT luciferized (JNL) cells with THP-1 cells; assay: Anti-CD3 NFAT signalling assay, JNL + THP-1 cells (Example 36); assay type: cell-based, human; conditions: THP-1 cells preincubated with IFNg (100 u/mL, 48 hours)
Description: Jurkat reporter gene assay (RGA) for the nuclear factor of activated T-cells (NFAT) pathway was performed using Jurkat NFAT luciferized (JNL) cells and THP-1 cells (ATCC, TIB202). THP-1 cells express FcγRI, FcγRII, and FcγRIII. Cells were co-incubated for 6 hours at 37° C., 5% CO2 at a 5:1 effector to tumor ratio with each sample at the various concentrations depicted. An equal volume of ONE-Glo™ reagent (Promega, E6110) was added to the culture volume. Plate was shaken for 2 minutes, then incubated for an additional 8 minutes protected from light. For JNL+ THP+IFNg experiment, THP-1 cells were pre-treated with 100 u/mL IFNg for 48 hours at 37° C., 5% CO2 before co-culture. IFNg stimulation increases FcγRI expression. Luciferase activity was quantitated on the EnVision plate reader (PerkinElmer). Data was analyzed and fit to a 5 parameter-logistic curve using GraphPad Prism.

human FcγR1A = human FcγR1A (Homo sapiens, UniProt P12314); assay: SPR binding of Fc modified anti-CD3 IgG1 antibodies (Example 34); conditions: anti-CD3 IgG1 antibody immobilized
Chain of human FcγR1A (P12314 16-374): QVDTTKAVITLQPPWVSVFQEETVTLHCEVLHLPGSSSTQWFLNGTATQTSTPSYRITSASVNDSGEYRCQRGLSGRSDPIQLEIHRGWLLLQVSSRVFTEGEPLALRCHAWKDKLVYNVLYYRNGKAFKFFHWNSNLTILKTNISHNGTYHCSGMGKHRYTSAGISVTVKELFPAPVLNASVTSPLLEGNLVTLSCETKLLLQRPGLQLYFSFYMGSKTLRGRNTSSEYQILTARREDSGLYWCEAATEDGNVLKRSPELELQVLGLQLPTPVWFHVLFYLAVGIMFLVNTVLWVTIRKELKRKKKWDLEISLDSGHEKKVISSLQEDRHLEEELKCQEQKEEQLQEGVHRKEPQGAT
Description: Surface plasmon resonance (SPR) experiments were performed to analyze the interaction of human activating receptors FcγR1A, FcγR3A (V158) and human C1q with IgG1 WT and antibody-Fc variants. Binding kinetics and their relative binding affinities were explored. The binding affinity is an important characteristic of an interaction between an antibody and an antigen. The equilibrium dissociation constant (KD) defines how strong the interaction is and therefore how much antibody-antigen complex is formed at equilibrium.
The knowledge of the antibody characteristics is not only essential during selection of the best therapeutic antibody candidate, but also important to understand the in vivo behavior and potentially predict cellular immune responses. […] Binding to human C1q was evaluated. […] SPR measurements were measured on a Biacore T200 (GE-Healthcare Life Sciences) controlled by Biacore T200 control software version 2.0.1. […]
The antibodies were covalently immobilized on a CM5 sensor chip whereas Fc gamma receptors or human C1q served as analytes in solution (FIG. 38). […] Zero concentration samples (blank runs) were measured for both methods to allow double-referencing during data evaluation.
Data were evaluated using the Biacore T200 evaluation software. […] In addition, the maximum response reached during the experiment was monitored. […]

[2] = Aggregation propensity (% HMW) by analytical SEC of IgG1 anti-CD3 antibody and Fc variants (Example 35); assay type: physicochemical; conditions: PBS pH 7.4, anti-CD3 antibodies
Description: Size exclusion chromatography measurements were performed to evaluate the aggregation propensity (% HMW) of IgG1 antibody and Fc modified derivatives. The produced and purified anti CD3 antibodies were applied to an analytical size exclusion chromatography column (SEC 200, GE Healthcare), equilibrated with PBS buffer pH 7.4.

[3] = Differential scanning calorimetry, melting temperature of Fc modified anti-CD3 antibodies (Example 35); assay type: physicochemical; conditions: DSC, 1 mg/ml in PBS pH 7.4, anti-CD3 IgG1 Fc variants
Description: Calorimetric measurements were carried out on a differential scanning micro calorimeter (Nano DSC, TA instruments). The cell volume was 0.5 ml and the heating rate was 1° C./min. All proteins were used at a concentration of 1 mg/m in PBS (pH 7.4). The molar heat capacity of each protein was estimated by comparison with duplicate samples containing identical buffer from which the protein had been omitted. The partial molar heat capacities and melting curves were analyzed using standard procedure. Thermograms were baseline corrected and concentration normalized.

[4] = tested on: T cells co-cultured with OCI-LY-19, Karpas422 or Toledo target cells; assay: TBM and BBM mediated T cell proliferation (Example 20); assay type: cell-based, human; conditions: OCI-LY-19, Karpas422, Toledo co-culture; E:T 1:3, 96 hrs, 2.5 nM-0.0006 nM; H variants
Description: Briefly, OCI-LY-19, Karpas422, and Toledo target cells stably expressing firefly luciferase were plated in a 96 well plate in T Cell Media (TCM) (RPMI-1640, ThermoFisher Scientific, Cat #11875-085), 10% FBS (Seradigm, Cat #1500-500), 1% L-Glutamine (Thermo Fisher Scientific, Cat #25830-081), 1% Non Essential Amino Acids (Thermo Fisher Scientific, Cat #11140-050),1% Pen/Strep (Thermo Fisher Scientific, Cat #15070063), 1% HEPES (Thermo Fisher Scientific, Cat #15630080), Sodium Pyruvate (Thermo Fisher Scientific, Cat #11360-070), 0.1% Beta-mercaptoethanol (Thermo Fisher Scientific, Cat #21985-023)]. PBMCs previously isolated and cryopreserved from 2 Leukopak donors were thawed and Pan T cells were isolated (as described earlier). Isolated T cells were labelled with 5 μM Cell Trace Violet (CTV) (Thermo Fisher Scientific, Cat #C34557) following the manufacturer's protocol and were co-cultured with target cells at an E:T ratio of 1:3. A dilution series of CD3med TSP1, CD3hi TSP1, CD3hi BSP1, CD3hi TSP1C, and blinatumomab ranging from 2.5 nM-0.0006 nM was added to cells and the plates were incubated in a 5% CO2, 37° C. incubator for 96 hrs. […]

B1: GADAPA-IgG1: anti-CD3 IgG1 with G237A/D265A/P329A (antibody)
heavy: EVQLVESGGGLVQPGGSLKLSCAASGFTFNTYAMNWVRQASGKGLEWVGRIRSKYNNYATYYADSVKDRFTISRDDSKSTLYLQMNSLKTEDTAVYYCVRHGNFGNSYVSWFAYWGQGTLVTVSSASTKGPSVFPLAPSSKSTSGGTAALGCLVKDYFPEPVTVSWNSGALTSGVHTFPAVLQSSGLYSLSSVVTVPSSSLGTQTYICNVNHKPSNTKVDKRVEPKSCDKTHTCPPCPAPELLGAPSVFLFPPKPKDTLMISRTPEVTCVVVAVSHEDPEVKFNWYVDGVEVHNAKTKPREEQYNSTYRVVSVLTVLHQDWLNGKEYKCKVSNKALAAPIEKTISKAKGQPREPQVYTLPPSRDELTKNQVSLTCLVKGFYPSDIAVEWESNGQPENNYKTTPPVLDSDGSFFLYSKLTVDKSRWQQGNVFSCSVMHEALHNHYTQKSLSLSPGK
light: QAVVTQEPSLTVSPGGTVTLTCRSSTGAVTTSNYANWVQQKPGQAPRGLIGGTNKRAPWTPARFSGSLLGDKAALTLSGAQPEDEAEYFCALWYSNLWVFGGGTKLTVLGQPKAAPSVTLFPPSSEELQANKATLVCLISDFYPGAVTVAWKADSSPVKAGVETTTPSKQSNNKYAASSYLSLTPEQWKSHRSYSCQVTHEGSTVEKTVAPTECS
[1]
  NFAT activity (T-cell activation): some activity remaining
Human FcγR1A
  Maximum response at 100 nM hFcgammaRIA (RU): 16 RU
[2]
  (%) higher molecular weight: 8.0%
[3]
  Melting temperature (Tm) of CH2 domain: 65 °C

B2: CD3hi TSP1C: TBM corresponding to CD3hi TSP1 but with a lysozyme binding arm in place of the CD19 binding arm; control antibody (antibody)
heavy: QVQLQQSGPGLVKPSQTLSLTCAISGDSVSSNSAAWSWIRQSPGRGLEWLGRIYYRSKWYNDYAVSVKSRITINPDTSKNQFSLQLNSVTPEDTAVYYCARLDHRYHEDTVYPGMDVWGQGTLVTVSSASTKGPSVFPLAPSSKSTSGGTAALGCLVKDYFPEPVTVSWNSGALTSGVHTFPAVLQSSGLYSLSSVVTVPSSSLGTQTYICNVNHKPSNTKVDKRVEPKSCGGGGSGGGGSEVQLVESGGGLVQPGGSLKLSCAASGFTFNTYAMNWVRQASGKGLEWVGRIRSKYNNYATYYADSVKDRFTISRDDSKSTLYLQMNSLKTEDTAVYYCVRHGNFGNSYVSWFAYWGQGTLVTVSSGGGGSGGGGSGGGGSGGGGSQAVVTQEPSLTVSPGGTVTLTCRSSTGAVTTSNYANWVQQKPGQAPRGLIGGTNKRAPWTPARFSGSLLGDKAALTLSGAQPEDEAEYFCALWYSNLWVFGGGTKLTVLGGGGSDKTHTCPPCPAPELLGGPSVFLFPPKPKDTLMISRTPEVTCVVVAVSHEDPEVKFNWYVDGVEVHNAKTKPREEQYASTYRVVSVLTVLHQDWLNGKEYKCKVSNKALAAPIEKTISKAKGQPREPQVCTLPPSREEMTKNQVSLSCAVKGFYPSDIAVEWESNGQPENNYKTTPPVLDSDGSFFLVSKLTVDKSRWQQGNVFSCSVMHEALHNHYTQKSLSLSPGK
light: DIELTQPPSVSVAPGQTARISCSGDNLPAYTVTWYQQKPGQAPVLVIYDDSDRPSGIPERFSGSNSGNTATLTISGTQAEDEADYYCASWDPSSGVVFGGGTKLTVLGQPKAAPSVTLFPPSSEELQANKATLVCLISDFYPGAVTVAWKADSSPVKAGVETTTPSKQSNNKYAASSYLSLTPEQWKSHRSYSCQVTHEGSTVEKTVAPTECS
chain: SQQIYGVVYGNVTFHVPSNVPLKEVLWKKQKDKVAELENSEFRAFSSFKNRVYLDTVSGSLTIYNLTSSDEDEYEMESPNITDTMKFFLYVLESGGGGSDKTHTCPPCPAPELLGGPSVFLFPPKPKDTLMISRTPEVTCVVVAVSHEDPEVKFNWYVDGVEVHNAKTKPREEQYASTYRVVSVLTVLHQDWLNGKEYKCKVSNKALAAPIEKTISKAKGQPREPQVYTLPPCREEMTKNQVSLWCLVKGFYPSDIAVEWESNGQPENNYKTTPPVLDSDGSFFLYSKLTVDKSRWQQGNVFSCSVMHEALHNHYTQKSLSLSPGK
[4]
  T cell proliferation (% proliferated CD3+ T cells): did not induce any T cell proliferation
